The record followed here is paper PMC11610669, “A Spectroscopic Study on the Amyloid‐β Interaction with Clicked Peptide‐Porphyrin Conjugates: a Vision Toward the Detection of Aβ Peptides in Aqueous Solution” (Chembiochem, 2024).

Molecules are shown by their SMILES.

The series in a line: CD control: β-sheet propensity of the conjugates alone. Type of series: physicochemical. The following applies: 10 mM phosphate buffer pH 7.4, room temperature, up to 120 h. Here is the method:
The UV‐Vis spectra of porphyrin‐peptide conjugates (5 μM) were recorded in the presence of an equimolar ration of Aβ42 monomers at 0, 24, 48 and 120 h (Figure 2S). […] Therefore, the interaction of the peptide‐porphyrin conjugates with Aβ was further studied using CD spectroscopy. The Aβ42 aggregation process was monitored either in the absence or in the presence of an equimolar amount of the conjugated peptides. A series of CD control experiments were preventively carried out to assess the propensity of the porphyrin‐peptide conjugates to adopt a β‐sheet conformation. The corresponding CD curves are shown in the supplementary material (Figure 3S). […] We then evaluated the ability of the porphyrin‐peptide conjugates to affect the Aβ42’s aggregation process. This was accomplished by running a series of CD experiments on the binary systems in the same experimental conditions as the control CD measurements. A 5 μM Aβ42 sample was used as a positive control of the aggregation process (Figure 3, panel a). In this case, the curve profiles indicate that at 0 h, Aβ42 is predominantly in the random coil conformation, as evidenced by the negative ellipticity around 200 nm. […] The typical dichroic profile characterized by a negative ellipticity at λ=222 nm and a positive band at λ=200 is indicative of this event (Figure 3, panel a).
Spectra were recorded on a J‐810 spectrometer (Jasco, Japan) under a constant flow of N2 at room temperature. The CD measurements were performed in the wavelength regions (190–260 nm, 195–350 nm and 350–500 nm) using a 1 cm path length quartz cell. All aggregation kinetics were monitored up to 120 hours. The CD spectra were recorded for Aβ42 (5 μM and 20 μM) monomer in the absence or in the presence of porphyrin‐peptide conjugates (5 μM and 20 μM for the 1 : 1 molar ratios). Monomerized samples of Aβ42 (5 μM and 20 μM) were solubilized in 50 μL of NaOH 20 mM (2,5 %) and after were diluted with 1950 μL of 10 mM phosphate buffer at pH 7.4 pure or containing the solubilized conjugates.

Take `COC(=O)[C@H](Cc1cn(CCCC[C@H](NC(=O)CNC(C)=O)C(=O)N2CCC[C@H]2C(=O)NCC(=O)N[C@@H](CCCCN)C(=O)N[C@@H](CC(C)C)C(=O)N[C@H](C(=O)N[C@@H](Cc2ccccc2)C(=O)N[C@@H](Cc2ccccc2)C(N)=O)C(C)C)nn1)NC(=O)c1ccc(-c2c3nc(c(-c4cc[n+](C)cc4)c4ccc([nH]4)c(-c4cc[n+](C)cc4)c4nc(c(-c5cc[n+](C)cc5)c5ccc2[nH]5)C=C4)C=C3)cc1` [Zn‐Ph‐Pep]: the “propensity to adopt β-sheet conformation (conjugate alone)” value is recorded as “being faster in this process”.
